Source: patent US20140004122A1, “METHODS FOR TREATING OR PREVENTING CHOLESTEROL RELATED DISORDERS” (AMGEN INC., priority 2011, published 2014)

Columns and labels:
[1] = test system: hypercholesterolemic subjects unable to tolerate an effective dose of an HMG-CoA reductase inhibitor; assay: 12 week study vs ezetimibe in statin-intolerant patients (Example 23); assay type: in vivo, human; settings: preliminary
Experimental: It is planned to enroll 150 subjects. […] Randomization will be stratified by screening LDL-C level (<130 mg/dL [3.4 mmol/L] vs≧130 mg/dL) and statin use at baseline (yes vs no). Randomization should occur within 5-10 days of the screening LDL-C evaluation used to determine eligibility. Monoclonal antibody, 21B12, and placebo will be blinded. Ezetimibe is not blinded. Study visits are at weeks 2, 4, 8, and 12. […] The end-of-study visit and the last evaluation of lipids is at week 12.
Males and females, ≧18 to ≦75 years of age, are eligible for this study. Subject must have tried at least 1 statin and have been unable to tolerate any dose or an increase in statin dose above the following total weekly maximum doses due to myalgia or myopathy: atorvastatin ≦70 mg, simvastatin ≦140 mg, pravastatin ≦140 mg, rosuvastatin ≦35 mg, lovastatin ≦140 mg, fluvastatin ≦280 mg. For unlisted statins, the maximal total weekly dose should not exceed 7 times the smallest available tablet size. Symptoms must have resolved when statin was discontinued or the dose reduced. If receiving statin (not exceeding the maximal dose defined above), bile-acid sequestering resin, and/or stanol therapy, the dose(s) must be stable for at least 4 weeks prior to LDL-C screening. If the subject is on ezetimibe at start of screening, ezetimibe must be discontinued for ≧4 weeks before LDL-C screening. Depending on their risk category (based on NCEP ATP III treatment goals) subjects must meet the following fasting LDL-C (by central laboratory) criteria at screening: ≧100 mg/dL (2.6 mmol/L) for subjects with diagnosed coronary heart disease (CHD) or CHD risk equivalent; ≧130 mg/dL (3.4 mmol/L) for subjects without diagnosed CHD or risk equivalent and 2 or more risk factors; ≧160 mg/dL (4.1 mmol/L) for subjects without diagnosed CHD or risk equivalent and with 1 or no risk factors. Fasting triglycerides must be ≦400 mg/dL (4.5 mmol/L) as determined by the central laboratory analysis at screening.

LDLR in HepG2 cells = assay: LDLR levels with statin and ABP in HepG2 cells (immunoblot); assay type: cell-based, human; settings: HepG2 and HepG2-PCSK9 cells, with mevinolin, 48 hours
Experimental: HepG2 cells were seeded in DMEM with 10% fetal bovine serum (FBS) and grown to ˜90% confluence. The cells were treated with indicated amounts of mevinolin (a statin, Sigma) and PCSK9 ABPs (FIGS. 12A-12C) in DMEM with 3% FBS for 48 hours. Total cell lysates were prepared. […] of total proteins were separated by gel electrophoresis and transferred to PVDF membrane. Immunoblots were performed using rabbit anti-human LDL receptor antibody (Fitzgerald) or rabbit anti-human b-actin antibody. The enhanced chemiluminescent results are shown in the top panels of FIGS. 12A-12C. The intensity of the bands were quantified by ImageJ software and normalized by b-actin. The relative levels of LDLR are shown in the lower panels of FIGS. 12A-12C.

[2] = test system: human patient at risk of developing coronary heart disease; assay: Prevention of coronary heart disease (Example 18); assay type: in vivo; settings: alone, concurrently or sequentially with a statin
Source text: A human patient at risk of developing coronary heart disease is identified. […] At periodic times during the treatment, the human patient is monitored to determine whether the patient's total serum cholesterol level changes.

[3] = 280 mg Q4W SC, end of the dosing interval
[4] = 350 mg Q4W SC, end of the dosing interval

B1: 21B12: human anti-PCSK9 monoclonal antibody; light/heavy variable region SEQ ID NO 23/49 (antibody, listed as Homo sapiens, V domains shown)
VH: QVQLVQSGAEVKKPGASVKVSCKASGYTLTSYGISWVRQAPGQGLEWMGWVSFYNGNTNYAQKLQGRGTMTTDPSTSTAYMELRSLRSDDTAVYYCARGYGMDVWGQGTTVTVSS
VL: QSALTQPASVSGSPGQSITISCTGTSSDVGGYNSVSWYQQHPGKAPKLMIYEVSNRPSGVSNRFSGSKSGNTASLTISGLQAEDEADYYCNSYTSTSMVFGGGTKLTVL
LS mean percent increase from baseline in HDL-C [1, 3]: 8.62%
LS mean percent reduction from baseline in LDL-C [1, 3]: 38.79%
LS mean percent reduction from baseline in Lp(a) [1, 3]: 27.38%
LS mean percent reduction from baseline in VLDL-C [1, 3]: 31.02%
LS mean percent reduction from baseline in non-HDL-C [1, 3]: 39.92%
LS mean percent reduction from baseline in total cholesterol [1, 3]: 31.03%
LS mean percent reduction from baseline in triglycerides [1, 3]: 15.35%
LS mean percent increase from baseline in HDL-C [1, 4]: 4.62%
LS mean percent reduction from baseline in LDL-C [1, 4]: 40.01%
LS mean percent reduction from baseline in Lp(a) [1, 4]: 16.04%
LS mean percent reduction from baseline in VLDL-C [1, 4]: 38.14%
LS mean percent reduction from baseline in non-HDL-C [1, 4]: 42.86%
LS mean percent reduction from baseline in total cholesterol [1, 4]: 34.46%
LS mean percent reduction from baseline in triglycerides [1, 4]: 19.22%
LS mean percent increase from baseline in HDL-C ([1]; 420 mg Q4W SC): 7.55%
LS mean percent reduction from baseline in LDL-C ([1]; 420 mg Q4W SC): 50.63%
LS mean percent reduction from baseline in Lp(a) ([1]; 420 mg Q4W SC): 23.84%
LS mean percent reduction from baseline in VLDL-C ([1]; 420 mg Q4W SC): 37.27%
LS mean percent reduction from baseline in non-HDL-C ([1]; 420 mg Q4W SC): 53.49%
LS mean percent reduction from baseline in total cholesterol ([1]; 420 mg Q4W SC): 42.23%
LS mean percent reduction from baseline in triglycerides ([1]; 420 mg Q4W SC): 19.55%
LDLR levels compared with the 25A7.1 ABP (a non-neutralizer) (LDLR in HepG2 cells): greater increase in LDLR levels
serum cholesterol vs patients not receiving the treatment [2]: reduced serum cholesterol
